Experimental data: PMC3192196 (Angewandte Chemie (International Ed. in English), 2011)

Assays:
[1] = test system: PSMA+ PC3-PIP and PSMA− PC3-flu xenografts; assay: sequential SPECT-CT and optical; format: in vivo, severe-combined immune-deficient (SCID) mice
[2] = ex vivo biodistribution, PSMA+ PC3 PIP tumor; format: in vivo, severe-combined immune-deficient (SCID) mice; details: SCID, mouse, PSMA+ PC3-PIP tumor
PSMA+ PC3-PIP xenografts = assay: ex vivo biodistribution, PSMA+ PC3 PIP tumor; format: in vivo, severe-combined immune-deficient (SCID) mice; details: for PIP:flu uptake ratio: PSMA+ PIP to PSMA− flu tumor
PSMA [3] = target: T1, PSMA (Homo sapiens, UniProt Q04609); assay: blocking of uptake with ZJ43; format: in vivo; details: blocking dose 50 mg/Kg ZJ43 (Figure S9)
T1 sequence (Q04609 whole entry): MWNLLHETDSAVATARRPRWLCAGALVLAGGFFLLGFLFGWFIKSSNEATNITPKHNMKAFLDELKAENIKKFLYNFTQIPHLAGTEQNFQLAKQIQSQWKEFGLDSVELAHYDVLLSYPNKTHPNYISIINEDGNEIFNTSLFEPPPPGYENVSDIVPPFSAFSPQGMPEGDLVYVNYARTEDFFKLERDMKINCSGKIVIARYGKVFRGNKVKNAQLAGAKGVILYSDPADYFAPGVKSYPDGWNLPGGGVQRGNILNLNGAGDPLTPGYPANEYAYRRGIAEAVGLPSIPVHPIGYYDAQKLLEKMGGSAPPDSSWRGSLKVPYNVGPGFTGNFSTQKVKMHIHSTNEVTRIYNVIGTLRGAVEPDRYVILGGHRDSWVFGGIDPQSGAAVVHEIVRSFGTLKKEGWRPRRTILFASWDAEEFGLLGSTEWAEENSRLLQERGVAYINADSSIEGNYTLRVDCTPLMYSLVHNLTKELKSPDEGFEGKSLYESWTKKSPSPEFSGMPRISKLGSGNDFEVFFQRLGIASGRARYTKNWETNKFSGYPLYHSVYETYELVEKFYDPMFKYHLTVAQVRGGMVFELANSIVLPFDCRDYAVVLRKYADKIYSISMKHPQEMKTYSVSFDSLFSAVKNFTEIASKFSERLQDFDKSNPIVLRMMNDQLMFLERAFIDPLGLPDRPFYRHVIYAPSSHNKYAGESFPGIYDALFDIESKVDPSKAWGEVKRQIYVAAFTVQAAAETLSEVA

in vivo = details: SCID, mouse, PSMA− PC3-flu tumor
[4] = ex vivo biodistribution, normal tissues; details: for tissue uptake at 1 h / tissue uptake at 2 h / tissue uptake at 5 h / tissue uptake at 24 h: SCID, mouse
PSMA [5] = target: T1, PSMA; assay: fluorescence-based PSMA inhibition assay; format: biochemical
[6] = electronic absorption and fluorescence spectroscopy; format: physicochemical; details: for emission maximum / fluorescence lifetime: aqueous solution; for extinction coefficient: at absorbance maximum 776 nm; for absorbance maximum: electronic spectra; for quantum yield: in PBS

## CC1(C)C(=CC=C2CCCC(C=CC3=[N+](CCCCS(=O)(=O)O)c4ccc(S(=O)(=O)[O-])cc4C3(C)C)=C2Oc2ccc(S(=O)(=O)O)cc2)N(CCCCCC(=O)NCCCC[C@H](NC(=O)CN2CCN(CC(=O)O)CCN(CC(=O)O)CCN(CC(=O)O)CC2)C(=O)N[C@@H](CCCCNC(=O)CCCCCCC(=O)NCCCC[C@H](NC(=O)N[C@@H](CCC(=O)O)C(=O)O)C(=O)O)C(=O)O)c2ccc(S(=O)(=O)O)cc21 (single isomer, unassigned) [[^111In]1, metal not drawn]
[1]; 37 MBq IV, imaged repeatedly over two days
  radiotracer uptake on in vivo imaging: Intense radiotracer uptake was seen only in the PSMA+ PIP tumors and in the kidneys
[1]; single injection of ~0.22 μg (0.1 nmol)
  tumor visualization by NIRF imaging: able to visualize tumor with NIRF imaging
[2]
  tissue uptake at 1 h: 13.9 ± 1.9 %ID/g
  tissue uptake at 2 h: 13.3 ± 2.4 %ID/g
  tissue uptake at 5 h: 16.4 ± 3.7 %ID/g
  tissue uptake at 24 h: 14.6 ± 1.3 %ID/g
PSMA+ PC3-PIP xenografts; 1h
  PIP:flu uptake ratio: 6.7
PSMA+ PC3-PIP xenografts; 2h
  PIP:flu uptake ratio: 6.3
PSMA+ PC3-PIP xenografts; 5h
  PIP:flu uptake ratio: 8.7
PSMA+ PC3-PIP xenografts; 24h
  PIP:flu uptake ratio: 7.4
PSMA+ PC3-PIP xenografts; biodistribution, up to 24 h
  binding and accumulation in PSMA+ PC3-PIP xenografts, in words: PSMA dependent binding in PSMA+ PC3-PIP xenografts with rapid accumulation at the tumor site that persisted throughout the course of the experiment
PSMA [3]
  blocking of uptake in PSMA+ PC3 PIP tumor and kidney by ZJ43: effective blocking in PSMA+ PC3 PIP tumor and kidney
In vivo
  tissue uptake at 1 h: 2.1 ± 0.7 %ID/g
  tissue uptake at 2 h: 2.1 ± 0.5 %ID/g
  tissue uptake at 5 h: 1.9 ± 0.2 %ID/g
  tissue uptake at 24 h: 2 ± 0.2 %ID/g
[4]; 1 h
  tissues with highest uptake at 1 h: The blood, spleen, gastrointestinal tract, kidney and bladder displayed the highest uptake at 1 h
[4]; 1 h to 24 h
  kidney clearance, in words: Steady clearance from the kidneys
[4]; bladder
  tissue uptake at 1 h: 4.1 ± 1.7 %ID/g
  tissue uptake at 2 h: 2.7 ± 1 %ID/g
  tissue uptake at 5 h: 1.1 ± 0.6 %ID/g
  tissue uptake at 24 h: 2 ± 0.5 %ID/g
[4]; blood
  tissue uptake at 1 h: 9.9 ± 5 %ID/g
  tissue uptake at 2 h: 7.1 ± 1.2 %ID/g
  tissue uptake at 5 h: 4.1 ± 0.8 %ID/g
  tissue uptake at 24 h: 0.9 %ID/g
[4]; heart
  tissue uptake at 1 h: 3.3 ± 0.5 %ID/g
  tissue uptake at 2 h: 1.8 ± 0.3 %ID/g
  tissue uptake at 5 h: 1.8 ± 0.1 %ID/g
  tissue uptake at 24 h: 0.8 ± 0.1 %ID/g
[4]; kidney
  tissue uptake at 1 h: 104 ± 9.4 %ID/g
  tissue uptake at 2 h: 97.1 ± 13 %ID/g
  tissue uptake at 5 h: 122 ± 21.6 %ID/g
  tissue uptake at 24 h: 48.1 ± 17.7 %ID/g
[4]; large intestine
  tissue uptake at 1 h: 1.5 ± 0.5 %ID/g
  tissue uptake at 2 h: 1.3 ± 0.3 %ID/g
  tissue uptake at 5 h: 0.8 ± 0.5 %ID/g
  tissue uptake at 24 h: 2 ± 0.4 %ID/g
[4]; liver
  tissue uptake at 1 h: 2.4 ± 0.1 %ID/g
  tissue uptake at 2 h: 2.2 %ID/g
  tissue uptake at 5 h: 3.2 ± 1.2 %ID/g
  tissue uptake at 24 h: 3.1 ± 0.4 %ID/g
[4]; muscle
  tissue uptake at 1 h: 1.2 ± 0.6 %ID/g
  tissue uptake at 2 h: 0.7 ± 0.2 %ID/g
  tissue uptake at 5 h: 0.9 ± 0.2 %ID/g
  tissue uptake at 24 h: 0.4 %ID/g
[4]; pancreas
  tissue uptake at 1 h: 2.1 ± 0.1 %ID/g
  tissue uptake at 2 h: 1.3 ± 0.3 %ID/g
  tissue uptake at 5 h: 2 ± 1 %ID/g
  tissue uptake at 24 h: 1 ± 0.3 %ID/g
[4]; small intestine
  tissue uptake at 1 h: 1.8 ± 0.5 %ID/g
  tissue uptake at 2 h: 1.5 ± 0.2 %ID/g
  tissue uptake at 5 h: 1.6 ± 0.3 %ID/g
  tissue uptake at 24 h: 2 ± 0.7 %ID/g
[4]; spleen
  tissue uptake at 1 h: 11.3 ± 3.7 %ID/g
  tissue uptake at 2 h: 6.8 ± 0.9 %ID/g
  tissue uptake at 5 h: 4.8 ± 2.4 %ID/g
  tissue uptake at 24 h: 8.2 ± 5.4 %ID/g
[4]; stomach
  tissue uptake at 1 h: 1.4 ± 0.3 %ID/g
  tissue uptake at 2 h: 1.2 ± 0.1 %ID/g
  tissue uptake at 5 h: 2.4 ± 1.8 %ID/g
  tissue uptake at 24 h: 1 ± 0.1 %ID/g

## CC1(C)C(=CC=C2CCCC(C=CC3=[N+](CCCCS(=O)(=O)O)c4ccc(S(=O)(=O)[O-])cc4C3(C)C)=C2Oc2ccc(S(=O)(=O)O)cc2)N(CCCCCC(=O)NCCCC[C@H](NC(=O)CN2CCN(CC(=O)O)CCN(CC(=O)O)CCN(CC(=O)O)CC2)C(=O)N[C@@H](CCCCNC(=O)CCCCCCC(=O)NCCCC[C@H](NC(=O)N[C@@H](CCC(=O)O)C(=O)O)C(=O)O)C(=O)O)c2ccc(S(=O)(=O)O)cc21 (single isomer, unassigned) [Compound 1]
PSMA [5]
  PSMA inhibition, in words: potent inhibitors of PSMA
[6]
  emission maximum: 792 nm
  fluorescence lifetime: 420 psec
  extinction coefficient: 181,000 M^−1cm^−1
  absorbance maximum: 776 nm
  quantum yield: ~ 8.9%

## CC1(C)C(=CC=C2CCCC(C=CC3=[N+](CCCCS(=O)(=O)O)c4ccc(S(=O)(=O)[O-])cc4C3(C)C)=C2Oc2ccc(S(=O)(=O)O)cc2)N(CCCCCC(=O)NCCCC[C@H](NC(=O)CN2CCN(CC(=O)O)CCN(CC(=O)O)CCN(CC(=O)O)CC2)C(=O)N[C@@H](CCCCNC(=O)CCCCCCC(=O)NCCCC[C@H](NC(=O)N[C@@H](CCC(=O)O)C(=O)O)C(=O)O)C(=O)O)c2ccc(S(=O)(=O)O)cc21 (single isomer, unassigned) [[^113/^115In]1]
PSMA [5]
  PSMA inhibition, in words: potent inhibitors of PSMA
[6]
  emission maximum: 792 nm
  fluorescence lifetime: 483 psec
  extinction coefficient: 181,000 M^−1cm^−1
  absorbance maximum: 776 nm
  quantum yield: ~ 8.9%
[6]; comparison of 1 and [^113/^115In]1
  spectral properties of 1 versus [^113/^115In]1, in words: did not observe any significant changes in the spectral properties
